This note sets out measurements from patent US20260356921 (published 2026).

This experiment concerns the target SARS-CoV (2003) RBD (SARS-CoV, UniProt P59594). Briefly: BLI. A general note: Biolayer interferometry detects binding as a change in optical thickness at a sensor tip.

B1: VHH-Fc (antibody, V domains shown)
VH: QVQLQESGGGLVQTGGSLRLSCAASGSFFSINDMGWYRQAPGKQRELVAMITGDDSTNYADSVKGRFTISRDNLKNTVYLQMNSLKPEDTALYYCNAEVKVIIWDSRFNYYWGQGTQVTVSS
For B1, the Kd (commonly a measure of binding affinity in units of concentration) worked out at 0.013 µM.
